Experiments:
FcγRI = FcγRI (Homo sapiens, UniProt P12314); test: Binding kinetics to FcγRI by Biolayer Interferometry; details: BLI, 25° C.
Experimental: (§1) The binding kinetics of the XMT-1535, Conjugate 7, and Conjugate 11 to Fc receptors (FcRn, FcγRI, FcγRIIA (H167), and FcγRIIIA (V176) were determined by Biolayer Interferometry (BLI; ForteBio Octet QKe) at 25° C. To test binding to Fcγ receptors, XMT-1535, Conjugate 7, and Conjugate 11 were diluted to 1 μg/mL in kinetics buffer (1×) and captured on anti-human Fab-CH1 (FAB2G) biosensors for 10 minutes. All dilutions and baseline measurements were done in kinetics buffer (1×). Baseline measurements were performed at […] before and after each capture step. Association measurements to the various Fc receptors were performed at 7 concentrations (from 1 μM to 100 nM, 2-fold serial dilutions) for 5 minutes. Dissociation was performed for 15 minutes. Binding constants were calculated with the global fit averages of the traces using a 1:1 model. Binding constants for XMT-1535, Conjugate 7, and Conjugate 11 to Fc receptors were determined using standard Octet procedures (ForteBio). Kinetic parameters were calculated using Octet software (ForteBio).
(§2) Tables IV-VII summarize the Kd (equilibrium dissociation constant), kon (rate of association), and koff (rate of dissociation) for human FcRn (Table IV), FcγRI (Table V), FcγRIIA H167 (Table VI), and FcγRIIIA […] (Table VII) for each test article.

NaPi2b-derived peptide = target: T1, NaPi2b-derived peptide (Homo sapiens, UniProt O95436); test: Binding kinetics to NaPi2b-derived peptide by Biolayer Interferometry; details: BLI, 25° C.
T1 construct: Genscript); purchased Genscript
T1 sequence (O95436 311-340 limits assumed): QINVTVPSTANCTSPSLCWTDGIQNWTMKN
Experimental: The binding kinetics of XMT-1535, Conjugate 7, and Conjugate 11 to immobilized NaPi2b-derived peptide antigen were determined by Biolayer Interferometry (BLI; Octet; ForteBio). Binding constants for XMT-1535, Conjugate 7, and Conjugate 11 were determined using standard Octet procedures (ForteBio). Biotinylated NaPi2b-derived peptide ([…]-biotin; Genscript) was immobilized to streptavidin octet sensors in kinetics buffer (10×). Sensors were then blocked in kinetics buffer (10×) with biocytin (50 μg/mL). Increasing concentrations of XMT-1535, Conjugate 7, or Conjugate 11 were then associated with immobilized peptide in kinetics buffer (10×).

FcγRIIA (H167) = target: T2, FcγRIIA (H167) (Homo sapiens, UniProt P12318); test: Binding kinetics to FcγRIIA by Biolayer Interferometry; details: FcγRIIA H167, BLI, 25° C.
T2 sequence (P12318 34-217 limits assumed): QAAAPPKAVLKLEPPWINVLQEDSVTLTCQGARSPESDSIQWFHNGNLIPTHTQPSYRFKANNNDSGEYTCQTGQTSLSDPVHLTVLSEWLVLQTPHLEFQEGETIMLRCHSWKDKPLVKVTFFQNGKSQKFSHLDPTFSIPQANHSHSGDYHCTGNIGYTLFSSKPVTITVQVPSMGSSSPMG
Experimental: as §1, §2

human FcRn = target: T3, human FcRn (Homo sapiens, UniProt P55899); test: Binding kinetics to FcRn by Biolayer Interferometry; details: BLI, 25° C., pH 6.0
T3 construct: purchased Immunitrack
Experimental: as §1
To test binding to FcRn receptor, association of XMT-1535, Conjugate 7, and Conjugate 11 to Fab-CH1 (FAB2G) biosensors was performed as described above. […] Association measurements to FcRn protein (Immunitrack) was measured at 7 concentrations (from 1 μM to 100 nM, 2-fold serial dilutions) for 5 minutes. […]

FcγRIIIA (V176) = test: Binding kinetics to FcγRIIIA by Biolayer Interferometry; set-up: species or system human; details: BLI, 25° C.
Experimental: as §1, §2

FcγRI, sequence (P12314 16-374): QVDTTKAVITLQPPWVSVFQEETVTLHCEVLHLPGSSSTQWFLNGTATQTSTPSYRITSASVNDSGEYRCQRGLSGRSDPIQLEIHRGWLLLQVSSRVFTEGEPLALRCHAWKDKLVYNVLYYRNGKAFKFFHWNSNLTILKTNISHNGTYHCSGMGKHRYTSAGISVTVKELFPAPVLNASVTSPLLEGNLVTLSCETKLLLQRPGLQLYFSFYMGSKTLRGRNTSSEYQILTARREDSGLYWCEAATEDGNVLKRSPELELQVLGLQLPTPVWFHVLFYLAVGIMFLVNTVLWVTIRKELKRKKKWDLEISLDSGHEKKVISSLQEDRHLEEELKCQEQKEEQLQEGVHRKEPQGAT

koff Mean (FcγRI): 0.000192 s⁻¹
kon Mean (FcγRI): 1.28e+06 M⁻¹ s⁻¹
koff, Mean Napi2b binding (NaPi2b-derived peptide): 1.27e-05 s⁻¹
kon, Mean Napi2b binding (NaPi2b-derived peptide): 170000 M⁻¹ s⁻¹
koff Mean (FcγRIIA (H167)): 0.308 s⁻¹
kon Mean (FcγRIIA (H167)): 175000 M⁻¹ s⁻¹
koff Mean (human FcRn): 0.000448 s⁻¹
kon Mean (human FcRn): 160000 M⁻¹ s⁻¹
koff Mean (FcγRIIIA (V176)): 0.146 s⁻¹
kon Mean (FcγRIIIA (V176)): 216000 M⁻¹ s⁻¹
Substance: XMT-1535: anti-NaPi2b antibody

Reference: patent publication US11786605B2, “Site specific antibody-drug conjugates with peptide-containing linkers” (Mersana Therapeutics, Inc., priority 2020, dated 2023)
